Molecular target: mβ2m
Test: SPR; pH 6

Kd	Substance
280 nM	Human AFP N-His
1030 nM	Mouse AFP N-His
